Measurements published in patent publication US20230143604A1, “QW DOSING OF GIP RECEPTOR AGONIST PEPTIDE COMPOUNDS AND USES THEREOF” (TAKEDA PHARMACEUTICAL COMPANY LIMITED, priority 2020, published 2023).
Starred links: 1 amine or outer side, 2 acyl side, 3 side chain; linkers in the order of their positions; H or OH if unused. Non-standard residues stand in square brackets, D forms with d. Groups on a side chain read outwards from the residue. No end group written: not given here. *: point of attachment. C20 diacid = O=C(O)CCCCCCCCCCCCCCCCCCC(=O)*; C18 diacid = O=C(O)CCCCCCCCCCCCCCCCC(=O)*; γGlu = O=C(O)[C@H](CCC(=O)[*:2])N[*:1]; NMeY = CN[C@@H](Cc1ccc(O)cc1)C(=O)O; AEEA = NCCOCCOCC(=O)O; Aib = CC(C)(N)C(=O)O

T1: full-length human GIPR with an N-terminal FLAG tag, overexpressed on HEK-293T cells (human, UniProt P48546 22-466)
T1 sequence (looked up): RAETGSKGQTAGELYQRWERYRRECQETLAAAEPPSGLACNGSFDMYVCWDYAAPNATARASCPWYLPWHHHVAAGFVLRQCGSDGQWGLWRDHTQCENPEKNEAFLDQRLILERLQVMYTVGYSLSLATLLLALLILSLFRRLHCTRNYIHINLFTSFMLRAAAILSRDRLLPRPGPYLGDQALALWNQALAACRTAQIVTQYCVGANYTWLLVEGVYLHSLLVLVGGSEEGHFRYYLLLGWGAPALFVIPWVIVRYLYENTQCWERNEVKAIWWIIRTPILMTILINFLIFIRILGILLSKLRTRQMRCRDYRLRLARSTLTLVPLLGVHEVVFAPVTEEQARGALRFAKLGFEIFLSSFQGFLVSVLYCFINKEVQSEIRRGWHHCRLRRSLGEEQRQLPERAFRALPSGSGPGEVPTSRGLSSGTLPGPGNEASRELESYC

B1: Compound No. 156 (peptide)
peptide: Y[Aib]EGTFISDYSIALDK[Aib]AQRK([AEEA-AEEA-γGlu-γGlu-C18 diacid])FVEWLLAQRG-OH
modifications: N-terminus assumed
SMILES: CC[C@H](C)[C@H](NC(=O)[C@H](CO)NC(=O)[C@H](Cc1ccc(O)cc1)NC(=O)[C@H](CC(=O)O)NC(=O)[C@H](CO)NC(=O)[C@@H](NC(=O)[C@H](Cc1ccccc1)NC(=O)[C@@H](NC(=O)CNC(=O)[C@H](CCC(=O)O)NC(=O)C(C)(C)NC(=O)[C@@H](N)Cc1ccc(O)cc1)[C@@H](C)O)[C@@H](C)CC)C(=O)N[C@@H](C)C(=O)N[C@@H](CC(C)C)C(=O)N[C@@H](CC(=O)O)C(=O)N[C@@H](CCCCN)C(=O)NC(C)(C)C(=O)N[C@@H](C)C(=O)N[C@@H](CCC(N)=O)C(=O)N[C@@H](CCCNC(=N)N)C(=O)N[C@@H](CCCCNC(=O)COCCOCCNC(=O)COCCOCCNC(=O)CC[C@H](NC(=O)CC[C@H](NC(=O)CCCCCCCCCCCCCCCCC(=O)O)C(=O)O)C(=O)O)C(=O)N[C@@H](Cc1ccccc1)C(=O)N[C@H](C(=O)N[C@@H](CCC(=O)O)C(=O)N[C@@H](Cc1c[nH]c2ccccc12)C(=O)N[C@@H](CC(C)C)C(=O)N[C@@H](CC(C)C)C(=O)N[C@@H](C)C(=O)N[C@@H](CCC(N)=O)C(=O)N[C@@H](CCCNC(=N)N)C(=O)NCC(=O)O)C(C)C
B2: Compound No. 162 (peptide)
peptide: H-Y[Aib]EGTFISDYSIALDK[Aib]K([AEEA-AEEA-γGlu-C18 diacid])QADFVEWLLAQRG-OH
SMILES: CC[C@H](C)[C@H](NC(=O)[C@H](CO)NC(=O)[C@H](Cc1ccc(O)cc1)NC(=O)[C@H](CC(=O)O)NC(=O)[C@H](CO)NC(=O)[C@@H](NC(=O)[C@H](Cc1ccccc1)NC(=O)[C@@H](NC(=O)CNC(=O)[C@H](CCC(=O)O)NC(=O)C(C)(C)NC(=O)[C@@H](N)Cc1ccc(O)cc1)[C@@H](C)O)[C@@H](C)CC)C(=O)N[C@@H](C)C(=O)N[C@@H](CC(C)C)C(=O)N[C@@H](CC(=O)O)C(=O)N[C@@H](CCCCN)C(=O)NC(C)(C)C(=O)N[C@@H](CCCCNC(=O)COCCOCCNC(=O)COCCOCCNC(=O)CC[C@H](NC(=O)CCCCCCCCCCCCCCCCC(=O)O)C(=O)O)C(=O)N[C@@H](CCC(N)=O)C(=O)N[C@@H](C)C(=O)N[C@@H](CC(=O)O)C(=O)N[C@@H](Cc1ccccc1)C(=O)N[C@H](C(=O)N[C@@H](CCC(=O)O)C(=O)N[C@@H](Cc1c[nH]c2ccccc12)C(=O)N[C@@H](CC(C)C)C(=O)N[C@@H](CC(C)C)C(=O)N[C@@H](C)C(=O)N[C@@H](CCC(N)=O)C(=O)N[C@@H](CCCNC(=N)N)C(=O)NCC(=O)O)C(C)C
B3: Compound No. 163 (peptide)
peptide: H-Y[Aib]EGTFISDYSIALDK[Aib]K([AEEA-AEEA-γGlu-C18 diacid])QANFVEWLLAQRG-OH
SMILES: CC[C@H](C)[C@H](NC(=O)[C@H](CO)NC(=O)[C@H](Cc1ccc(O)cc1)NC(=O)[C@H](CC(=O)O)NC(=O)[C@H](CO)NC(=O)[C@@H](NC(=O)[C@H](Cc1ccccc1)NC(=O)[C@@H](NC(=O)CNC(=O)[C@H](CCC(=O)O)NC(=O)C(C)(C)NC(=O)[C@@H](N)Cc1ccc(O)cc1)[C@@H](C)O)[C@@H](C)CC)C(=O)N[C@@H](C)C(=O)N[C@@H](CC(C)C)C(=O)N[C@@H](CC(=O)O)C(=O)N[C@@H](CCCCN)C(=O)NC(C)(C)C(=O)N[C@@H](CCCCNC(=O)COCCOCCNC(=O)COCCOCCNC(=O)CC[C@H](NC(=O)CCCCCCCCCCCCCCCCC(=O)O)C(=O)O)C(=O)N[C@@H](CCC(N)=O)C(=O)N[C@@H](C)C(=O)N[C@@H](CC(N)=O)C(=O)N[C@@H](Cc1ccccc1)C(=O)N[C@H](C(=O)N[C@@H](CCC(=O)O)C(=O)N[C@@H](Cc1c[nH]c2ccccc12)C(=O)N[C@@H](CC(C)C)C(=O)N[C@@H](CC(C)C)C(=O)N[C@@H](C)C(=O)N[C@@H](CCC(N)=O)C(=O)N[C@@H](CCCNC(=N)N)C(=O)NCC(=O)O)C(C)C
B4: Compound No. 167 (peptide)
peptide: H-Y[Aib]EGTFISDYSI[Aib]LDKAAQQK([AEEA-AEEA-γGlu-γGlu-C18 diacid])FVEWLLAQRG-OH
SMILES: CC[C@H](C)[C@H](NC(=O)[C@H](Cc1ccccc1)NC(=O)[C@@H](NC(=O)CNC(=O)[C@H](CCC(=O)O)NC(=O)C(C)(C)NC(=O)[C@@H](N)Cc1ccc(O)cc1)[C@@H](C)O)C(=O)N[C@@H](CO)C(=O)N[C@@H](CC(=O)O)C(=O)N[C@@H](Cc1ccc(O)cc1)C(=O)N[C@@H](CO)C(=O)N[C@H](C(=O)NC(C)(C)C(=O)N[C@@H](CC(C)C)C(=O)N[C@@H](CC(=O)O)C(=O)N[C@@H](CCCCN)C(=O)N[C@@H](C)C(=O)N[C@@H](C)C(=O)N[C@@H](CCC(N)=O)C(=O)N[C@@H](CCC(N)=O)C(=O)N[C@@H](CCCCNC(=O)COCCOCCNC(=O)COCCOCCNC(=O)CC[C@H](NC(=O)CC[C@H](NC(=O)CCCCCCCCCCCCCCCCC(=O)O)C(=O)O)C(=O)O)C(=O)N[C@@H](Cc1ccccc1)C(=O)N[C@H](C(=O)N[C@@H](CCC(=O)O)C(=O)N[C@@H](Cc1c[nH]c2ccccc12)C(=O)N[C@@H](CC(C)C)C(=O)N[C@@H](CC(C)C)C(=O)N[C@@H](C)C(=O)N[C@@H](CCC(N)=O)C(=O)N[C@@H](CCCNC(=N)N)C(=O)NCC(=O)O)C(C)C)[C@@H](C)CC
B5: Compound No. 168 (peptide)
peptide: H-Y[Aib]EGTFISDYSI[Aib]LDKAAQAK([AEEA-AEEA-γGlu-γGlu-C18 diacid])FVEWLLAQRG-OH
SMILES: CC[C@H](C)[C@H](NC(=O)[C@H](Cc1ccccc1)NC(=O)[C@@H](NC(=O)CNC(=O)[C@H](CCC(=O)O)NC(=O)C(C)(C)NC(=O)[C@@H](N)Cc1ccc(O)cc1)[C@@H](C)O)C(=O)N[C@@H](CO)C(=O)N[C@@H](CC(=O)O)C(=O)N[C@@H](Cc1ccc(O)cc1)C(=O)N[C@@H](CO)C(=O)N[C@H](C(=O)NC(C)(C)C(=O)N[C@@H](CC(C)C)C(=O)N[C@@H](CC(=O)O)C(=O)N[C@@H](CCCCN)C(=O)N[C@@H](C)C(=O)N[C@@H](C)C(=O)N[C@@H](CCC(N)=O)C(=O)N[C@@H](C)C(=O)N[C@@H](CCCCNC(=O)COCCOCCNC(=O)COCCOCCNC(=O)CC[C@H](NC(=O)CC[C@H](NC(=O)CCCCCCCCCCCCCCCCC(=O)O)C(=O)O)C(=O)O)C(=O)N[C@@H](Cc1ccccc1)C(=O)N[C@H](C(=O)N[C@@H](CCC(=O)O)C(=O)N[C@@H](Cc1c[nH]c2ccccc12)C(=O)N[C@@H](CC(C)C)C(=O)N[C@@H](CC(C)C)C(=O)N[C@@H](C)C(=O)N[C@@H](CCC(N)=O)C(=O)N[C@@H](CCCNC(=N)N)C(=O)NCC(=O)O)C(C)C)[C@@H](C)CC

Assays:
[1] = molecular target: T1, full-length human GIPR with an …; experiment: cell-based or functional assay
[2] = molecular target: full-length human GLP-1R with an N-terminal FLAG tag, overexpressed on HEK-293T cells (human, UniProt P43220 24-463); experiment: cell-based or functional assay

Binder	Human GIPR cAMP EC50, HEK293T [1] [nM]	Human GLP1R cAMP EC50, HEK293T [2] [nM]
B1	0.0013	10.2
YXEGTFISDYSIAXDKAAQQXFVEWLLAQRG (N-terminus H; Aib at 2, 14; Km at 21 = Lys(2OEGgEgE-C18DA); C-terminus OH) [Compound No. 157]	0.0003	437
YXEGTFISDYSIAXDKAAQAXFVEWLLAQRG (N-terminus H; Aib at 2, 14; Km at 21 = Lys(2OEGgEgE-C18DA); C-terminus OH) [Compound No. 158]	0.0005	339
[NMeY][Aib]EGTFISDYSI[Aib]LDR[Aib]AQ[Aib]K([AEEA-AEEA-γGlu-γGlu-C20 diacid])FVNWLLAQRG-OH [Compound No. 159]	0.0009	11.7
H-Y[Aib]EGTFISDYSIALDKIK([AEEA-AEEA-γGlu-C18 diacid])Q[Aib]DFVEWLLAQRG-OH [Compound No. 160]	0.0003	537
H-Y[Aib]EGTFISDYSIALDKAK([AEEA-AEEA-γGlu-C18 diacid])Q[Aib]DFVEWLLAQRG-OH [Compound No. 161]	0.0001	85.1
B2	0.0004	589
B3	0.0002	219
YXEGTFISDYSIAXDKAXQQDFVEWLLAQRG (N-terminus H; Aib at 2, 14; Km at 18 = Lys(2OEGgE-C18DA); C-terminus OH) [Compound No. 164]	0.0002	> 1000
YXEGTFISDYSIAXDKAXQADFVEWLLAQRG (N-terminus H; Aib at 2, 14; Km at 18 = Lys(2OEGgE-C18DA); C-terminus OH) [Compound No. 165]	0.0001	> 1000
YXEGTFISDYSIAXDKIXQADFVEWLLAQRG (N-terminus H; Aib at 2, 14; Km at 18 = Lys(2OEGgE-C18DA); C-terminus OH) [Compound No. 166]	0.0005	74.1
B4	0.0009	38
B5	0.0009	16.6
